The record followed here is paper PMC4340663.

Experiment [1] has as its target KNH1144 SOSIP gp140 trimer with the hexaarginine (R6) mutation (HIV-1 subtype A isolate KNH1144). The experiment is described as follows: native gel or EMSA. In general terms: A gel shift assay detects complexes by their altered migration in electrophoresis.
The target is the same in experiment [2]. The experiment can be described thus: negative-stain electron microscopy.

On to “KNH1144 SOSIP gp140 trimer with the hexaarginine (R6) mutation (complex)”, for which the stoichiometry N in experiment [1] was determined as 3.
The substance “two-domain soluble CD4 (domain or fragment)” yielded a stoichiometry N (molecules per trimer) in experiment [1] of 3.
Turning to “four-domain soluble CD4 (domain or fragment)”, the stoichiometry N (molecules per trimer) in experiment [1] and in experiment [2] was 3 each time.

By stoichiometry N is commonly meant a count of units in the complex or per binding partner.
